Source: patent US20040097454A1, “Method for modulation of cell phenotype” (University Technology Corporation, priority 1999, published 2004)

Legend:
3T3-L1 cells = assay: 3T3-L1 cell proliferation (Cell-Titer 96 Aq); format: cell-based; settings: muristerone-treated versus control clones, 72 hours
Protocol: 3T3-L1 fibroblasts were passaged and treated with differentiation-inducing agents as previously described (Klemm et al., 1998, J. Biol. Chem., 273:917-923), incorporated herein by reference in its entirety. Plates of 3T3-L1 fibroblasts and adipocytes were grown to 70-80% confluency and transfected with the above-described plasmids with Superfect Reagent (Oiagen, Valencia, Calif.) according to the manufacturer's recommendations. Cells stably transfected with the plasmid, pVgRXR were selected for in conventional medium containing 500 ug/mi Zeocin, and cells stably transfected with pIND-VP16-CREB, pIND-KCREB or pIND-LacZ plasmids were selected for in medium containing 500 ug/ml Geneticin. Large, rapidly growing, well separated colonies were isolated 10 to 12 days after selection was begun with either antibiotic. […] The effect of VP16-CREB and KCREB expression on 3T3-L1 proliferation was assessed by measuring cell number with the Cell-Titer 96 Aq reagent system (Promega Corp., Madison, Wis.).
Two possible mechanisms by which CREB could potentiate adipose differentiation would be by increasing cell proliferation related to clonal expansion, or by inhibiting cell growth as a prelude to terminal differentiation. To examine these possibilities, changes in the rate of cell growth in control versus muristerone-treated VP16-CREB and KCREB expressing clones was measured.

[1] = tested on: PEPCK gene promoter in NIH 3T3-L1 clonal cell lines; assay: Truncated CRE-containing PEPCK promoter luciferase reporter (-109 pPC-Luc) in 3T3-L1 clones; format: cell-based; settings: VP16-CREB clones 2-4 and 9-7; muristerone; versus untreated cells
Protocol: To test the ability of KCREB and VP16-CREB expression to influence gene transcription, a plasmid containing a truncated, CRE-containing portion of the phosphoenolpyruvate carboxykinase (PEPCK) gene promoter linked to a luciferase reporter gene (−109 pPC-Luc) was transfected into each of the clones. […] Four hours later cell lysates were prepared and luciferase activity measured as an index of transcriptional activity. Levels are shown relative to levels of luciferase activity in untreated, control cells (No Add'n).

[2] = tested on: CREluc reporter in HEK cells; assay: CREluc reporter in HEK cells transfected with CREB constructs; format: cell-based; settings: transient transfection of adenoviral expression plasmids
Text: CDNA for KCREB, CREB DIEDML and VP16CREB were cloned into adenoviral expression vectors as described previously herein. The plasmids were transiently transfected into HEK cells to assess their impact upon a cotransfected CREluc reporter construct. […] Transfected cells were also lysed and CREB protein content and Flag content assayed Western analysis. All proteins were highly expressed in HEK cells (data not shown).

[3] = tested on: PPARγ2 and FABP expression in 3T3-L1 cell lines; assay: Expression of adipocyte-specific markers PPARγ2 (Western) and FABP (RNA blot); format: cell-based; settings: muristerone-treated VP16-CREB cell lines, absence of other differentiation-stimulating agents
Protocol: In this experiment, control, VP16-CREB and KCREB expressing cells lines were grown and treated as above. On days 0 and 10 of the experiment, whole cell lysates and total RNA were prepared from duplicate wells of cells. Approximately 25 ug of protein in the cell lysates (lysed directly on multiwell slides in SDS gel loading buffer) was separated on 10% polyacrylamide-SDS gels and transferred to nitrocellulose blots. The blots were probed with a polyclonal antibody to PPARγ2, and the specific PPARγ2 band is indicated by an * in the top row of blots (FIG. 3).
Similarly, 10 ug of total RNA was separated on 1% denaturing (formaldehyde) agarose gels run at 5 V/cm until the Bromophenol Blue tracking dye had migrated half the length of the gel. The gels were soaked in several changes of distilled water, overnight at 4° C., and stained with ethidium bromide and briefly examined in ultraviolet light to insure RNA integrity and equivalent RNA amounts in each lane. The gels were destained in several changes of 5× sodium chloride/sodium citrate (SSC) buffer. RNA was transferred onto nitrocellulose membranes. The resulting blots were heated to 80° C. under vacuum for two hours. The membranes were blocked for 30 minutes at 70° C., and then a biotin-labeled FABP-specific oligonucleotide probe (250 fg/ml) was added for an additional 30 min. […]

[4] = tested on: NIH 3T3-L1 preadipocyte cell lines; assay: Adipocyte differentiation assay, Oil Red O staining of triacylglycerol; format: cell-based; settings: muristerone-induced expression alone, no differentiation agents, 10 days
Protocol: Differentiation assays were performed on cells growing on 8 chamber microscope slides. […] The cells were treated with a differentiation mixture, muristerone, or both. […] Muristerone was added to medium at a final concentration of 10 uM for the entire 10 day differentiation period. After 10 days in culture, the cells were stained with Oil Red 0 to visualize triacylglycerol vesicles as previously described (Klemm et al., 1998, J. Biol. Chem., 273:917-923), and counterstained with hematoxylin to visualize cell morphology. Cells were observed by brightfield microscopy and representative fields, were photographed.

BASMC = assay: Transient VP16CREB transfection in BASMC, phenotype; format: cell-based, bovine; settings: preliminary transient transfections
Text: It is expected that dominant negative CREB and sense ICER will lead to SMC phenotypic modulation. If the dose delivered overwhelms the cells, apoptosis may occur. Assays to confirm or deny the induction of apoptosis are readily available in the lab in conjunction with the neurodegeneration REAP. Overexpression of WT CREB is likely to promote a differentiated phenotype. The present inventors have already provided data above showing arrest of cell cycle and decreased migration with CREB overexpression. The constitutively active CREB could induce ICER and promote dedifferentiation, promote proliferation by driving immediate early genes, or maintain the mature phenotype. Adenoviral overexpression of constitutively active signaling elements can lead to non-physiological protein interactions. […] The dominant negative CREB and ICER overexpression experiments will be the most informative for the question of how CREB down-regulation impacts phenotype.

[5] = tested on: PEPCK, FABP and FAS gene promoters in 3T3-L1 fibroblasts; assay: Full length PEPCK, FABP and FAS promoter luciferase reporters in 3T3-L1 fibroblasts; format: cell-based; settings: relative to untreated cells
Protocol: Control, VP16-CREB or KCREB inducibly expressing 3T3-L1 fibroblasts were transfected with plasmids containing the full length promoters of the PEPCK, FABP or FAS genes linked to luciferase. The cells were cotransfected with the internal control plasmid, pRSV-pGal. […] Cell lysates were then prepared, and luciferase activity measured as an index of transcriptional activity. Levels of transcription are shown relative to levels measured in untreated cells for each promoter tested, and were corrected for transfection efficiency.

B1: VP16-CREB: constitutively active fusion protein: VP16 transactivation domain (aa 412-490) linked to CREB DNA binding domain (aa 217-327), SEQ ID NO:6 (protein, listed as Homo sapiens)
chain: MAPKKKRKVPGVPSSNCIDTAPPTDVSLGDELHLDGEDVAMAHADAHDDFDLDMLGDGDSPGPGFTPHDSAPYGALDMADFEFEQMFTDALGIDEYGGIDWILVPSNQVVVQAASGDVQTYQIRTAPTSTIAPGVVMASSPALPTQPAEEAARKREVRLMKNREAARECRRKKKEYVKCLENRVAVLENQNKTLIEELKALKDLYCHKSZ
- rate of cell proliferation (3T3-L1 cells): No significant differences in the rate of cell proliferation
- luciferase production from the PEPCK promoter fragment, stimulation [1]: 3.5 to 4 fold
- CREluc reporter luciferase expression [2]: strongly drive the reporter
- PPARγ2 and FABP expression, day 10 [3]: easily detected
- triacylglycerol accumulation and cell morphology (Oil Red O) [4]: sufficient to induce triacylglycerol accumulation and rounded cell morphology
- SMC phenotype (BASMC): phenotypic changes consistent with increased differentiation
- transcription (luciferase) from full-length PEPCK, FABP and FAS promoters [5]: stimulated
